Test results from publication PMC2568865, “Hsp90-Dependent Activation of Protein Kinases Is Regulated by Chaperone-Targeted Dephosphorylation of Cdc37” (Molecular Cell, 2008).

B1: pSer13-Cdc37 (E. coli-expressed Cdc37 phosphorylated in vitro with CK2) (natural protein, human, UniProt Q16543 1-378, looked up)
chain: MVDYSVWDHIEVSDDEDETHPNIDTASLFRWRHQARVERMEQFQKEKEELDRGCRECKRKVAECQRKLKELEVAEGGKAELERLQAEAQQLRKEERSWEQKLEEMRKKEKSMPWNVDTLSKDGFSKSMVNTKPEKTEEDSEEVREQKHKTFVEKYEKQIKHFGMLRRWDDSQKYLSDNVHLVCEETANYLVIWCIDLEVEEKCALMEQVAHQTIVMQFILELAKSLKVDPRACFRQFFTKIKTADRQYMEGFNDELEAFKERVRGRAKLRIEKAMKEYEEEERKKRLGPGGLDPVEVYESLPEELQKCFDVKDVQMLQDAISKMDPTDAKYHMQRCIDSGLWVPNSKASEAKEGEEAGPGDPLLEAVPKTGDEKDVSV
modifications: phosphoserine at 13
notes: human Cdc37 (p50), phosphorylated on Ser13 by CK2 in vitro; also called phosphorylated Cdc37; pCdc37; source: E. coli, purified, phosphorylated in vitro with CK2 (Promega), further purified on Resource Q
B2: Cdc37 (E. coli-expressed, unphosphorylated) (natural protein, human, UniProt Q16543 1-378, looked up)
chain: B1 chain
notes: human Cdc37 (p50), not phosphorylated; also called WT-Cdc37; nonphosphorylated Cdc37; source: E. coli, purified
B3: His6-tagged Cdk4 (enzyme, human, UniProt P11802 1-303, looked up)
chain: MATSRYEPVAEIGVGAYGTVYKARDPHSGHFVALKSVRVPNGGGGGGGLPISTVREVALLRRLEAFEHPNVVRLMDVCATSRTDREIKVTLVFEHVDQDLRTYLDKAPPPGLPAETIKDLMRQFLRGLDFLHANCIVHRDLKPENILVTSGGTVKLADFGLARIYSYQMALTPVVVTLWYRAPEVLLQSTYATPVDMWSVGCIFAEMFRRKPLFCGNSEADQLGKIFDLIGLPPEDDWPRDVSLPRGAFPPRGPRPVQSVVPEMEESGAQLLLEMLTFNPHKRISAFRALQHSYLHKDEGNPE
notes: Cdk4, Cdc37/Hsp90-dependent protein kinase; also called K (in C-K and H-C-K); source: Sf9 cells, baculovirus, co-expressed with human Cdc37; purified via the His6 tag as C-K and H-C-K complexes; not shown: His6, N-terminal, kept

Assays:
[1] = target: T1, full-length human Hsp90α (human, UniProt P07900 1-732); assay: pull-down; GST-PP5 on glutathione Sepharose with Cdc37 or CK2-phosphorylated Cdc37 preincubated with Hsp90α for 1 hr; 4°C, 2 hr; 50 mM HEPES pH 7.5, 150 mM NaCl, 0.1% NP40, BSA; PP5 dephosphorylates Cdc37 during the incubation; settings: both partners purified
T1 construct: human Hsp90α

[2] = target: T2, pSer13-Cdc37 (human Cdc37 expressed in Sf9 cells, phosphorylated on Ser13) (human, UniProt Q16543 1-378, phosphoserine at 13); assay: co-purification (His6 affinity); human Cdc37 and N-terminally His6-tagged Cdk4 co-expressed in Sf9 cells by baculovirus; complexes purified via the His6 tag on Cdk4; Coomassie-stained SDS-PAGE; settings: partners not purified
T2 construct: human Cdc37 (p50), phosphorylated on Ser13 in the insect cells; also called p50; Sf9-expressed Cdc37; source: Sf9 cells, baculovirus; purified in the C-K and H-C-K complexes with His6-Cdk4; free Cdc37 obtained as a by-product of the H-C-K complex purification
T2 sequence (looked up): B1 chain

[3] = target: T3, Cdc37 (human, Sf9-expressed) dephosphorylated with λ-phosphatase (human, UniProt Q16543 1-378); assay: SEC; purified C-K complex incubated with or without λPP (1:10) for 1 hr at room temperature; Superose 6 HR10/30 in 50 mM Tris pH 7.5, 10 mM KCl, 10 mM MgCl2, 150 mM NaCl, 1 mM EDTA, 3 mM DTT; 1 ml fractions probed by Western blot; settings: both partners purified
T3 construct: human Cdc37 (p50), Ser13 dephosphorylated in vitro by λPP; Same construct as m2 after treatment with λPP; also called dephosphorylated Cdc37; Cdc37 in dephosphorylated C-K or H-C-K complex; source: Sf9 cells, baculovirus; purified in the C-K and H-C-K complexes, then dephosphorylated with λ-phosphatase (NEB)
T3 sequence (looked up): B1 chain

Row | Binder | binding result [1] | binding result [2] | binding result [3]
1 | B1 | binds | – | –
2 | B2 | binds | – | –
3 | B3 | – | binds | binds
